± gives the standard deviation of the averaged measurements.
system: ATP; experiment: switch fluorescence ratio, 500 uM ATP over buffer (Cy3 cluster intensity, sum of 5 cycles each) (fold (ratio)); higher = stronger signal-on switching upon ATP binding; sequences stand for … in TCGTCGGCAGCGTCAGATGTGTATAAGAGACAGTTTTTTTTTTTTTTTTTTTTTTTTT…TC; details: aptamer strand: ATP DNA aptamer (quencher-CACCTGGGGGAGTATTGCGGAGGAAGG + anchor), 100 nM annealed; ATP concentration: 500 uM
In short: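 Clusters carrying Cy3-labelled switching strands on a modified Illumina MiSeq flow-cell were annealed to 100 nM quencher-labelled ATP aptamer and imaged in selection buffer. They were imaged again after 15 min with 500 uM ATP at 22 °C, over five buffer/ATP cycles with NaOH stripping and re-annealing in between. For each cluster, the fluorescence ratio is the summed Cy3 intensity of the target cycles divided by that of the buffer cycles, averaged per switch-domain sequence. Clusters outside 100-1000 RFU were left out.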
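Also: ATP exposure 15 min at 22 °C before imaging.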

| Sequence | switch fluorescence ratio |
| --- | --- |
| TAAGGCGGGG | 0.993 ± 0.042 |
| AATGGAAGGG | 1.01 ± 0.013 |
| GATGACAGGG | 1.01 ± 0.12 |
| GTTTCCGTTT | 0.973 ± 0.017 |
| CTTGTTGAGG | 0.988 ± 0.012 |
| TTGTGTCGCT | 1.0031 ± 0.0004 |
| CGTTTGAGTT | 0.984 ± 0.026 |
| TGAAATTACG | 1.03 ± 0.022 |
| TATCTTTAGT | 0.989 ± 0.015 |
| GAAGGCATGG | 1.03 ± 0.015 |
| CGGGCCGGGA | 0.976 ± 0.025 |
| TTTTTCAGGC | 0.969 ± 0.055 |
| ACCAAGTTCA | 1.02 ± 0.014 |
| TCGTGGGGGC | 1.07 ± 0.14 |
| TGGGCCTAAG | 0.968 ± 0.061 |
| TCACCATTCA | 1.052 ± 0.0059 |
| CGTCTGGGGA | 0.996 ± 0.048 |
| CAAAGGGATA | 1 ± 0.054 |
| TTTATAGGTT | 1.02 ± 0.069 |
| CAAGGCTGGG | 1.02 ± 0.049 |
| AATGGGGGCA | 1.007 ± 0.0076 |
| AGGGGCAAAT | 1.01 ± 0.029 |
| CTGGGGAAAC | 1.03 ± 0.064 |

| Sequence | switch fluorescence ratio |
| --- | --- |
| TGGGTATAAC | 1 ± 0.018 |
| TGAGGCCCAG | 1.01 ± 0.019 |
| CGTTTATTTT | 1.01 ± 0.03 |
| AAACCAGTG | 1.175 ± 0.0088 |
| TATACGGCCG | 1 ± 0.0059 |
| AATAAGGTAT | 0.965 ± 0.014 |
| TCGTTTTACT | 1.34 ± 0.44 |
| GTGATGAACG | 1.01 ± 0.092 |
| TGTTTGTGAA | 0.9815 ± 0.0032 |
| AGGGTCTGCG | 0.981 ± 0.025 |
| GATGAAAGGT | 1.002 ± 0.0047 |
| ATGCGCACCG | 1.05 ± 0.023 |
| TGTGGTGGCG | 0.935 ± 0.018 |
| AAAGTAGGTT | 0.991 ± 0.023 |
| GGGGGACGTT | 0.981 ± 0.031 |
| TCGCCTGGGG | 1.1 ± 0.0046 |
| ATTTTCAGTT | 1.01 ± 0.026 |
| TGGGGACGGG | 1 ± 0.046 |
| GAAGGTTCAT | 0.961 ± 0.022 |
| ACATTATATG | 1.01 ± 0.043 |
| CCAAGTAGGC | 1.13 ± 0.022 |
| GTGGACCAGT | 0.972 ± 0.024 |
| CGATGTTTTC | 1.03 ± 0.073 |

| Sequence | switch fluorescence ratio |
| --- | --- |
| TTTGGCGCTG | 0.984 ± 0.019 |
| TGGGGCCTTT | 0.9981 ± 0.0045 |
| AGATTTTGCA | 0.989 ± 0.027 |
| ATTGTTTCCT | 1.06 ± 0.039 |
| TGGGAGGAGG | 1.01 ± 0.077 |
| TTGGGGGCA | 1.03 ± 0.045 |
| CCGGGGAGTG | 1.14 ± 0.25 |
| CATGGGGCGC | 1.012 ± 0.0071 |
| GGGGGAGTCC | 0.985 ± 0.014 |
| ATGCAAGGGC | 1.08 ± 0.024 |
| GAACGCCGGC | 0.939 ± 0.034 |
| ATCGGAACCT | 2.15 ± 0.1 |
| AGGGGATTAC | 1.062 ± 0.0014 |
| AGTTTAGGAC | 0.985 ± 0.031 |
| AGGTGCTCTT | 1 ± 0.053 |
| TCGTAATAGG | 1.118 ± 0.011 |
| GTATAGGGGC | 0.977 ± 0.025 |
| GGTTTGAGGA | 0.971 ± 0.012 |
| CGTCTGGCTG | 1 ± 0.057 |
| TTACAAGCGA | 1.03 ± 0.019 |
| TTTAATGAGC | 0.995 ± 0.014 |
| TACATGAAGA | 1.02 ± 0.013 |
| GATGTGAGCC | 1.01 ± 0.018 |

| Sequence | switch fluorescence ratio |
| --- | --- |
| AATAGGGCAG | 1.009 ± 0.0078 |
| GGGGTATCTC | 0.986 ± 0.021 |
| TTGTAATTCT | 1.167 ± 0.0018 |
| CTATGCTAGT | 1.01 ± 0.016 |
| CGGCGGGTTT | 1.02 ± 0.049 |
| ACTATTATTT | 0.9887 ± 0.0022 |
| ATTTGAGGGC | 1.01 ± 0.033 |
| TGGACTCTGG | 0.973 ± 0.02 |
| CCACTGTTGG | 0.992 ± 0.029 |
| GGTTGTGGGG | 0.998 ± 0.035 |
| TTTATGAACT | 1.02 ± 0.042 |
| AAGAAGGTTG | 0.9847 ± 0.0061 |
| GAATTGTATT | 0.993 ± 0.06 |
| TGAGAAAGGT | 0.965 ± 0.044 |
| TTTATACCGT | 1.026 ± 0.0028 |
| CCGGGGGACC | 1.04 ± 0.021 |
| CATTGTGGGT | 0.975 ± 0.019 |
| GCTCGTTTGG | 0.9745 ± 0.0041 |
| CTCAGACAGC | 1.107 ± 0.0056 |
| TTGGGTTTAC | 1.02 ± 0.049 |
| AGTTTGAGTT | 1.02 ± 0.052 |
| TTTCGGTTGC | 1.07 ± 0.11 |
| CTCTTGAATA | 0.9957 ± 0.0015 |

| Sequence | switch fluorescence ratio |
| --- | --- |
| TTTGAATTAT | 0.975 ± 0.021 |
| ATTGGCGTGG | 1.01 ± 0.019 |
| AAAGTTTGTT | 1.025 ± 0.007 |
| ATTCGTTATG | 1 ± 0.013 |
| GCTGGGGACT | 0.996 ± 0.02 |
| GGTGTGGATC | 1.021 ± 0.0029 |
| TGCGCTACGG | 1.08 ± 0.039 |
| TAGAGACTGA | 1.023 ± 0.0022 |
| AAGATATAGA | 1.014 ± 0.0027 |
| TGCCAGTGTT | 1.22 ± 0.32 |
| CCTCTCCGTA | 1.32 ± 0.083 |
| CGGTTGTAGT | 0.993 ± 0.032 |
| CCAGAAAGGA | 0.97 ± 0.029 |
| TTTCTGTGCT | 0.97009 ± 7e-05 |
| TCGGAGTACT | 1.16 ± 0.03 |
| TGGGTAGAAA | 0.975 ± 0.032 |
| CTAAACCGGT | 0.989 ± 0.015 |
| TTACTAGTAT | 1 ± 0.025 |
| GAGTGTAGTC | 1.06 ± 0.011 |
| GGCAAAGGTA | 0.968 ± 0.014 |
| GATGGGTTGG | 0.9899 ± 0.008 |
| ATTACGGAGA | 1.05 ± 0.069 |
| GGGGATCTTA | 1 ± 0.031 |

| Sequence | switch fluorescence ratio |
| --- | --- |
| TTTTTATCGG | 1.01 ± 0.024 |
| TTGGGGGTTT | 1.02 ± 0.036 |
| TTTCGGATTT | 0.983 ± 0.012 |
| CACGGGTTGC | 1.02 ± 0.031 |
| GTTGGTTCCG | 0.996 ± 0.022 |
| GTATTGGGTA | 0.99 ± 0.028 |
| TTAGCATAGT | 0.98 ± 0.024 |
| AAGGTTAGGG | 0.984 ± 0.029 |
| TGATTTAATA | 0.984 ± 0.025 |
| TTGGTGTCGG | 0.974 ± 0.036 |
| TTTGAAAGCT | 1.164 ± 0.0067 |
| AGGGTTAATG | 1.05 ± 0.017 |
| TACCATGACC | 1.109 ± 0.0081 |
| AGAATTTTCC | 1.08 ± 0.076 |
| TTGTAAGGGG | 1.009 ± 0.0031 |
| TTTAAAGA | 0.991 ± 0.01 |
| AGTCGGAACG | 0.963 ± 0.015 |
| TTTGCAATTA | 1.57 ± 0.5 |
| CAGTTCGTGT | 1.02 ± 0.022 |
| CGTTTAACAT | 1.01 ± 0.014 |
| GTTATAGGCT | 0.999 ± 0.035 |
| ATCAAAACTT | 1.03 ± 0.013 |
| AGATAGTATT | 0.986 ± 0.02 |

| Sequence | switch fluorescence ratio |
| --- | --- |
| GTCGAAGCCC | 1.03 ± 0.022 |
| AAAATTTTTA | 1 ± 0.021 |
| AGGGGGTGTC | 1.075 ± 0.0097 |
| TGAGGGTTGC | 1.01 ± 0.018 |
| CTAGGGGATG | 1.03 ± 0.062 |
| AGGGGAAGAC | 1.29 ± 0.41 |
| TGCTGGTTTT | 1.01 ± 0.037 |
| TTAGGAACAC | 1.07 ± 0.12 |
| TAAAAGTCGG | 1.01 ± 0.019 |
| CTGTCGACTT | 0.986 ± 0.011 |
| GGTGACTGCT | 0.9543 ± 0.0024 |
| GTAATAGTAT | 1.006 ± 0.0061 |
| ACAAGGAGGT | 0.983 ± 0.005 |
| GGCATTATTT | 1.02 ± 0.023 |
| AGTGGGAACC | 0.998 ± 0.025 |
| TTGGATTTAG | 0.998 ± 0.0044 |
| ATCGATAGTG | 1 ± 0.03 |
| GTAGGTAAGC | 1.03 ± 0.057 |
| TGGGGTCTAG | 0.969 ± 0.01 |

— the supplement of paper PMC10126150
